Reference: patent publication US20040002586A1

Biological target: recombinant human interleukin-22 (IL-22), expressed in E. coli from pEThTIF, refolded, not glycosylated (human) (UniProt Q9GZX6)
Experiment: X-ray crystal structure, surface buried between monomer A and monomer B

interface area: 2250 Å^2
Substance: recombinant human interleukin-22 (IL-22), expressed in E. coli from pEThTIF, refolded, not glycosylated (from UniProt Q9GZX6 29-179) (ligand)
